Source: PMC4854733 (The Journal of Experimental Medicine, 2016)

Experiments:
[1] = molecular target: the molecule itself; assay: negative-stain electron microscopy
[2] = molecular target: the molecule itself; assay: fluorescence polarisation
[3] = molecular target: the molecule itself; assay: SEC

B1: ASC^CARD-SUMO (domain or fragment)
chain: AAKPGLHFIDQHRAALIARVTNVEWLLDALYGKVLTDEQYQAVRAEPTNPSKMRKLFSFTPAWNWTCKDLLLQALRESQSYLVEDLERS
Q: Does B1 bind [1]?
A: binds

B2: fluorescently labeled ASC^CARD-SUMO (domain or fragment)
chain: B1 chain
modifications: fluorophore joined by sortase at the C-terminal sortase motif
Q: Does B2 bind [2]?
A: binds

B3: GFP-ASC^CARD (domain or fragment)
chain: B1 chain
Q: Does B3 bind [3]?
A: binds
